Here are results for 94 variants from the supplement of paper PMC10567573.

The labels stand for the following.
B1: TNXB (parent)
chain: LLQRELMVPGTRHSAVLRDLRSGT
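Further: lentivirally expressed fusions sorted by FACS into six bins by GFP to DsRed ratio, PSI derived from sequencing read proportions per bin multiplied by bin number.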

In this data set the parent is B1. Description: protein stability index of a GFP-peptide fusion (GPS, HEK-293T) (PSI 1-6); higher = more stable. To be noted: c terminus: a fixed tail appended.
Turning to LLQRELMVPGTRHSAFLRDLRSGT [V16F], the protein stability index was found to be 1.71.

For LLQRELMVPGTRHSAYLRDLRSGT [V16Y], the protein stability index is 3.05. On to LLQRELMVPGTRHSATLRDLRSGT [V16T], for which the protein stability index came to 2.7.

On to LLQRELMVPGTRHSAALRDLRSGT [V16A], for which the protein stability index turned out to be 3.05. In the case of LLQRELMVPGTRHSARLRDLRSGT [V16R], the protein stability index was 2.52. LLQRELMVPGTRHSAPLRDLRSGT [V16P]: the protein stability index came to 2.82. As to LLQRELMVPGTRHSASLRDLRSGT [V16S], the protein stability index was 2.27. Consider LLQRELMVPGTRHSAWLRDLRSGT [V16W], for which the protein stability index came to 2.06. Under LLQRELMVPGTRHSAKLRDLRSGT [V16K] stands 2.48; under LLQRELMVPGTRHSADLRDLRSGT [V16D], 3.19.

Consider LLQRELMVPGTRHSAELRDLRSGT [V16E], for which the protein stability index turned out to be 2.72.

As to LLQRELMVPGTRHSAMLRDLRSGT [V16M], the protein stability index was found to be 2.15.

LLQRELMVPGTRHSACLRDLRSGT [V16C]: the protein stability index was found to be 2.02. Take LLQRELMVPGTRHSAILRDLRSGT [V16I]: the protein stability index came out at 2.11. With LLQRELMVPGTRHSAQLRDLRSGT [V16Q] the figure was 2.68; with LLQRELMVPGTRHSANLRDLRSGT [V16N], 3. LLQRELMVPGTRHSALLRDLRSGT [V16L]: the protein stability index amounted to 2.33. Under LLQRELMVPGTRHSAHLRDLRSGT [V16H] stands 2.46; under LLQRELMVPGTRRSAVLRDLRSGT [H13R], 3.11; under LLQRELMVPGTRWSAVLRDLRSGT [H13W], 2.01. Take LLQRELMVPGTRESAVLRDLRSGT [H13E]: the protein stability index worked out at 2.82. For the variant LLQRELMVPGTRQSAVLRDLRSGT [H13Q], the protein stability index amounted to 3.

Take LLQRELMVPGTRNSAVLRDLRSGT [H13N]: the protein stability index is 2.58. As for LLQRELMVPGTRSSAVLRDLRSGT [H13S], the protein stability index was found to be 2.9. As for LLQRELMVPGTRTSAVLRDLRSGT [H13T], the protein stability index worked out at 2.22.

LLQRELMVPGTRASAVLRDLRSGT [H13A]: the protein stability index worked out at 2.53. In the case of LLQRELMVPGTRYSAVLRDLRSGT [H13Y], the protein stability index was determined as 2.15. Take LLQRELMVPGTRCSAVLRDLRSGT [H13C]: the protein stability index came to 2.1. Turning to LLQRELMVPGTRVSAVLRDLRSGT [H13V], the protein stability index was determined as 2.1.

Take LLQRELMVPGTRKSAVLRDLRSGT [H13K]: the protein stability index is 2.09.

As for LLQRELMVPGTRISAVLRDLRSGT [H13I], the protein stability index stood at 1.91.

LLQRELMVPGTRPSAVLRDLRSGT [H13P]: the protein stability index was found to be 3.06. With LLQRELMVPGTRMSAVLRDLRSGT [H13M], the protein stability index stood at 2.25. For the variant LLQRELMVPGTRFSAVLRDLRSGT [H13F], the protein stability index stood at 1.59. Consider LLQRELMVPGTRGSAVLRDLRSGT [H13G], for which the protein stability index came out at 2.31. As for LLQRELMVPGTRDSAVLRDLRSGT [H13D], the protein stability index turned out to be 3.23. Under LLQRELMVPGTRLSAVLRDLRSGT [H13L] stands 2.01; under LLQRELMVPGTMHSAVLRDLRSGT [R12M], 1.85; under LLQRELMVPGTCHSAVLRDLRSGT [R12C], 1.94.

Turning to LLQRELMVPGTTHSAVLRDLRSGT [R12T], the protein stability index is 2.27.

Take LLQRELMVPGTPHSAVLRDLRSGT [R12P]: the protein stability index was 2.91.

Regarding LLQRELMVPGTQHSAVLRDLRSGT [R12Q], the protein stability index was found to be 2.42. Regarding LLQRELMVPGTHHSAVLRDLRSGT [R12H], the protein stability index came to 2.4. With LLQRELMVPGTKHSAVLRDLRSGT [R12K], the protein stability index turned out to be 2.28. Under LLQRELMVPGTLHSAVLRDLRSGT [R12L] stands 2.07. As for LLQRELMVPGTVHSAVLRDLRSGT [R12V], the protein stability index came to 2.26. With LLQRELMVPGTNHSAVLRDLRSGT [R12N] the figure was 2.76; with LLQRELMVPGTDHSAVLRDLRSGT [R12D], 3.01; with LLQRELMVPGTGHSAVLRDLRSGT [R12G], 3.09. Under LLQRELMVPGTWHSAVLRDLRSGT [R12W] stands 2.35; under LLQRELMVPGTSHSAVLRDLRSGT [R12S], 2.06.

Take LLQRELMVPGTAHSAVLRDLRSGT [R12A]: the protein stability index was 2.01. Under LLQRELMVPGTEHSAVLRDLRSGT [R12E] stands 2.39. On to LLQRELMVPGTFHSAVLRDLRSGT [R12F], for which the protein stability index came to 1.98. In the case of LLQRELMVPGTIHSAVLRDLRSGT [R12I], the protein stability index was found to be 2.47. As to LLQRELMVPGTYHSAVLRDLRSGT [R12Y], the protein stability index is 2.45. Turning to LLQRELMVPGTRHSAVERDLRSGT [L17E], the protein stability index was found to be 3.47.

Consider LLQRELMVPGTRHSAVGRDLRSGT [L17G], for which the protein stability index came out at 2.84.

In the case of LLQRELMVPGTRHSAVDRDLRSGT [L17D], the protein stability index worked out at 2.62. As to LLQRELMVPGTRHSAVWRDLRSGT [L17W], the protein stability index worked out at 2.38. Under LLQRELMVPGTRHSAVNRDLRSGT [L17N] stands 2.96; under LLQRELMVPGTRHSAVYRDLRSGT [L17Y], 2.45. With LLQRELMVPGTRHSAVFRDLRSGT [L17F], the protein stability index was determined as 2.23. On to LLQRELMVPGTRHSAVKRDLRSGT [L17K], for which the protein stability index was 3.75.

Take LLQRELMVPGTRHSAVMRDLRSGT [L17M]: the protein stability index worked out at 3.05.

Take LLQRELMVPGTRHSAVCRDLRSGT [L17C]: the protein stability index stood at 2.54.

LLQRELMVPGTRHSAVPRDLRSGT [L17P]: the protein stability index amounted to 2.97.

On to LLQRELMVPGTRHSAVARDLRSGT [L17A], for which the protein stability index came to 2.55. Under LLQRELMVPGTRHSAVIRDLRSGT [L17I] stands 2.81.

With LLQRELMVPGTRHSAVRRDLRSGT [L17R], the protein stability index is 3.46. For LLQRELMVPGTRHSAVQRDLRSGT [L17Q], the protein stability index is 3.32. LLQRELMVPGTRHSAVHRDLRSGT [L17H]: the protein stability index worked out at 2.28. With LLQRELMVPGTRHSAVSRDLRSGT [L17S], the protein stability index amounted to 3.16. In the case of LLQRELMVPGTRHSAVVRDLRSGT [L17V], the protein stability index is 2.85. As to LLQRELMVPGTRHSAVTRDLRSGT [L17T], the protein stability index was determined as 2.73. Turning to LLQRELMVPGTRHSAVLADLRSGT [R18A], the protein stability index worked out at 2.68.

On to LLQRELMVPGTRHSAVLCDLRSGT [R18C], for which the protein stability index stood at 2.42. For the variant LLQRELMVEGTRHSAVLRDLRSGT [P9E], the protein stability index was 2.54. Regarding LLQRELMVNGTRHSAVLRDLRSGT [P9N], the protein stability index turned out to be 2.34. Regarding LLQRELMVAGTRHSAVLRDLRSGT [P9A], the protein stability index was determined as 2.35. Under LLQRELMVVGTRHSAVLRDLRSGT [P9V] stands 2.38; under LLQRELMVKGTRHSAVLRDLRSGT [P9K], 2.21; under LLQRELMVYGTRHSAVLRDLRSGT [P9Y], 2.01.

As to LLQRELMVGGTRHSAVLRDLRSGT [P9G], the protein stability index worked out at 2.3. With LLQRELMVWGTRHSAVLRDLRSGT [P9W] the figure was 1.68. For the variant LLQRELMVRGTRHSAVLRDLRSGT [P9R], the protein stability index came out at 2.21. Regarding LLQRELMVQGTRHSAVLRDLRSGT [P9Q], the protein stability index turned out to be 2.1.

On to LLQRELMVCGTRHSAVLRDLRSGT [P9C], for which the protein stability index came out at 2.

Turning to LLQRELMVFGTRHSAVLRDLRSGT [P9F], the protein stability index worked out at 1.79.

For the variant LLQRELMVIGTRHSAVLRDLRSGT [P9I], the protein stability index came out at 1.58. In the case of LLQRELMVLGTRHSAVLRDLRSGT [P9L], the protein stability index amounted to 2.02. For LLQRELMVDGTRHSAVLRDLRSGT [P9D], the protein stability index was determined as 2.69.

Take LLQRELMVTGTRHSAVLRDLRSGT [P9T]: the protein stability index stood at 2.03. Take LLQRELMVSGTRHSAVLRDLRSGT [P9S]: the protein stability index was found to be 2.2.
